Measurements as given in patent US20200079833A1 (AstraZeneca / MedImmune, published 2020).
Starred links: 1 amine or outer side, 2 acyl side, 3 side chain; linkers in the order of their positions; H or OH if unused. Non-standard residues stand in square brackets, D forms with d. Groups on a side chain read outwards from the residue. No end group written: not given here. *: point of attachment. γGlu = O=C(O)[C@H](CCC(=O)[*:2])N[*:1]; Palmitoyl = CCCCCCCCCCCCCCCC(=O)*; αMeF = C[C@](N)(Cc1ccccc1)C(=O)O; αMeK = C[C@](N)(CCCCN)C(=O)O; αMeS = C[C@](N)(CO)C(=O)O; Aib = CC(C)(N)C(=O)O

T1: glucose-dependent insulinotropic peptide (gastric inhibitory polypeptide) receptor (GIPR) (human, UniProt P48546 22-466)
T1 sequence (looked up): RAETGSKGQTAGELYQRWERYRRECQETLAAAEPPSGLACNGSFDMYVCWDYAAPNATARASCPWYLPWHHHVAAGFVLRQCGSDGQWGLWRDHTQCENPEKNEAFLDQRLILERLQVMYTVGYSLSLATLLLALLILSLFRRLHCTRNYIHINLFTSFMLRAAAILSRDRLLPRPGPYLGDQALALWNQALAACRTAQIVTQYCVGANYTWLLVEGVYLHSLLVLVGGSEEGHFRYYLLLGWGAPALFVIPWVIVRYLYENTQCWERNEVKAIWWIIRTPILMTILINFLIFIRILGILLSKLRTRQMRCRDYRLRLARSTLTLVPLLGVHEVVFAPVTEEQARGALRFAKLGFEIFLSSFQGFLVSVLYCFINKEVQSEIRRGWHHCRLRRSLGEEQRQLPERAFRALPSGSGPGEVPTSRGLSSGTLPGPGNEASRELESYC

B1: SEQ ID NO 92 (peptide)
peptide: H[Aib]EGS[αMeF]TK([γGlu-Palmitoyl])DV[αMeS]S[αMeF]LEGEAA[αMeK]E[αMeF]IA[αMeF]VV[αMeK]GG-NH2
modifications: N-terminus assumed
SMILES: CCCCCCCCCCCCCCCC(=O)N[C@@H](CCC(=O)NCCCC[C@H](NC(=O)[C@@H](NC(=O)[C@](C)(Cc1ccccc1)NC(=O)[C@H](CO)NC(=O)CNC(=O)[C@H](CCC(=O)O)NC(=O)C(C)(C)NC(=O)[C@@H](N)Cc1c[nH]cn1)[C@@H](C)O)C(=O)N[C@@H](CC(=O)O)C(=O)N[C@H](C(=O)N[C@@](C)(CO)C(=O)N[C@@H](CO)C(=O)N[C@@](C)(Cc1ccccc1)C(=O)N[C@@H](CC(C)C)C(=O)N[C@@H](CCC(=O)O)C(=O)NCC(=O)N[C@@H](CCC(=O)O)C(=O)N[C@@H](C)C(=O)N[C@@H](C)C(=O)N[C@@](C)(CCCCN)C(=O)N[C@@H](CCC(=O)O)C(=O)N[C@@](C)(Cc1ccccc1)C(=O)N[C@H](C(=O)N[C@@H](C)C(=O)N[C@@](C)(Cc1ccccc1)C(=O)N[C@H](C(=O)N[C@H](C(=O)N[C@@](C)(CCCCN)C(=O)NCC(=O)NCC(N)=O)C(C)C)C(C)C)[C@@H](C)CC)C(C)C)C(=O)O
B2: SEQ ID NO 90 (peptide)
peptide: H[Aib]EGS[αMeF]TSDK([γGlu-Palmitoyl])[αMeS]S[αMeF]LEGEAA[αMeK]E[αMeF]IA[αMeF]VV[αMeK]GG-NH2
modifications: N-terminus assumed
SMILES: CCCCCCCCCCCCCCCC(=O)N[C@@H](CCC(=O)NCCCC[C@H](NC(=O)[C@H](CC(=O)O)NC(=O)[C@H](CO)NC(=O)[C@@H](NC(=O)[C@](C)(Cc1ccccc1)NC(=O)[C@H](CO)NC(=O)CNC(=O)[C@H](CCC(=O)O)NC(=O)C(C)(C)NC(=O)[C@@H](N)Cc1c[nH]cn1)[C@@H](C)O)C(=O)N[C@@](C)(CO)C(=O)N[C@@H](CO)C(=O)N[C@@](C)(Cc1ccccc1)C(=O)N[C@@H](CC(C)C)C(=O)N[C@@H](CCC(=O)O)C(=O)NCC(=O)N[C@@H](CCC(=O)O)C(=O)N[C@@H](C)C(=O)N[C@@H](C)C(=O)N[C@@](C)(CCCCN)C(=O)N[C@@H](CCC(=O)O)C(=O)N[C@@](C)(Cc1ccccc1)C(=O)N[C@H](C(=O)N[C@@H](C)C(=O)N[C@@](C)(Cc1ccccc1)C(=O)N[C@H](C(=O)N[C@H](C(=O)N[C@@](C)(CCCCN)C(=O)NCC(=O)NCC(N)=O)C(C)C)C(C)C)[C@@H](C)CC)C(=O)O
B3: SEQ ID NO 94 (peptide)
peptide: H[Aib]EGSK([γGlu-Palmitoyl])TSDV[αMeS]S[αMeF]LEGEAA[αMeK]E[αMeF]IA[αMeF]VV[αMeK]GG-NH2
modifications: N-terminus assumed
SMILES: CCCCCCCCCCCCCCCC(=O)N[C@@H](CCC(=O)NCCCC[C@H](NC(=O)[C@H](CO)NC(=O)CNC(=O)[C@H](CCC(=O)O)NC(=O)C(C)(C)NC(=O)[C@@H](N)Cc1c[nH]cn1)C(=O)N[C@H](C(=O)N[C@@H](CO)C(=O)N[C@@H](CC(=O)O)C(=O)N[C@H](C(=O)N[C@@](C)(CO)C(=O)N[C@@H](CO)C(=O)N[C@@](C)(Cc1ccccc1)C(=O)N[C@@H](CC(C)C)C(=O)N[C@@H](CCC(=O)O)C(=O)NCC(=O)N[C@@H](CCC(=O)O)C(=O)N[C@@H](C)C(=O)N[C@@H](C)C(=O)N[C@@](C)(CCCCN)C(=O)N[C@@H](CCC(=O)O)C(=O)N[C@@](C)(Cc1ccccc1)C(=O)N[C@H](C(=O)N[C@@H](C)C(=O)N[C@@](C)(Cc1ccccc1)C(=O)N[C@H](C(=O)N[C@H](C(=O)N[C@@](C)(CCCCN)C(=O)NCC(=O)NCC(N)=O)C(C)C)C(C)C)[C@@H](C)CC)C(C)C)[C@@H](C)O)C(=O)O
B4: SEQ ID NO 91 (peptide)
peptide: H[Aib]EGS[αMeF]TSK([γGlu-Palmitoyl])V[αMeS]S[αMeF]LEGEAA[αMeK]E[αMeF]IA[αMeF]VV[αMeK]GG-NH2
modifications: N-terminus assumed
SMILES: CCCCCCCCCCCCCCCC(=O)N[C@@H](CCC(=O)NCCCC[C@H](NC(=O)[C@H](CO)NC(=O)[C@@H](NC(=O)[C@](C)(Cc1ccccc1)NC(=O)[C@H](CO)NC(=O)CNC(=O)[C@H](CCC(=O)O)NC(=O)C(C)(C)NC(=O)[C@@H](N)Cc1c[nH]cn1)[C@@H](C)O)C(=O)N[C@H](C(=O)N[C@@](C)(CO)C(=O)N[C@@H](CO)C(=O)N[C@@](C)(Cc1ccccc1)C(=O)N[C@@H](CC(C)C)C(=O)N[C@@H](CCC(=O)O)C(=O)NCC(=O)N[C@@H](CCC(=O)O)C(=O)N[C@@H](C)C(=O)N[C@@H](C)C(=O)N[C@@](C)(CCCCN)C(=O)N[C@@H](CCC(=O)O)C(=O)N[C@@](C)(Cc1ccccc1)C(=O)N[C@H](C(=O)N[C@@H](C)C(=O)N[C@@](C)(Cc1ccccc1)C(=O)N[C@H](C(=O)N[C@H](C(=O)N[C@@](C)(CCCCN)C(=O)NCC(=O)NCC(N)=O)C(C)C)C(C)C)[C@@H](C)CC)C(C)C)C(=O)O
B5: SEQ ID NO 93 (peptide)
peptide: H[Aib]EGS[αMeF]K([γGlu-Palmitoyl])SDV[αMeS]S[αMeF]LEGEAA[αMeK]E[αMeF]IA[αMeF]VV[αMeK]GG-NH2
modifications: N-terminus assumed
SMILES: CCCCCCCCCCCCCCCC(=O)N[C@@H](CCC(=O)NCCCC[C@H](NC(=O)[C@](C)(Cc1ccccc1)NC(=O)[C@H](CO)NC(=O)CNC(=O)[C@H](CCC(=O)O)NC(=O)C(C)(C)NC(=O)[C@@H](N)Cc1c[nH]cn1)C(=O)N[C@@H](CO)C(=O)N[C@@H](CC(=O)O)C(=O)N[C@H](C(=O)N[C@@](C)(CO)C(=O)N[C@@H](CO)C(=O)N[C@@](C)(Cc1ccccc1)C(=O)N[C@@H](CC(C)C)C(=O)N[C@@H](CCC(=O)O)C(=O)NCC(=O)N[C@@H](CCC(=O)O)C(=O)N[C@@H](C)C(=O)N[C@@H](C)C(=O)N[C@@](C)(CCCCN)C(=O)N[C@@H](CCC(=O)O)C(=O)N[C@@](C)(Cc1ccccc1)C(=O)N[C@H](C(=O)N[C@@H](C)C(=O)N[C@@](C)(Cc1ccccc1)C(=O)N[C@H](C(=O)N[C@H](C(=O)N[C@@](C)(CCCCN)C(=O)NCC(=O)NCC(N)=O)C(C)C)C(C)C)[C@@H](C)CC)C(C)C)C(=O)O

Target: T1, glucose-dependent insulinotropic …
Experiment: cell-based or functional assay

Row | cAMP Primary assay EC50 GIP-R [nM] | cAMP Primary assay EC50 GIP-R (2nd) [nM] | Binder
1 | 28 | 28 | B1
2 | 28 | 28 | B2
3 | 28 | 28 | B3
4 | 28 | 28 | B4
5 | 28 | 28 | B5

Target: glucagon receptor (GCGR) (human, UniProt P47871 26-477)
Sequence (P47871 26-477): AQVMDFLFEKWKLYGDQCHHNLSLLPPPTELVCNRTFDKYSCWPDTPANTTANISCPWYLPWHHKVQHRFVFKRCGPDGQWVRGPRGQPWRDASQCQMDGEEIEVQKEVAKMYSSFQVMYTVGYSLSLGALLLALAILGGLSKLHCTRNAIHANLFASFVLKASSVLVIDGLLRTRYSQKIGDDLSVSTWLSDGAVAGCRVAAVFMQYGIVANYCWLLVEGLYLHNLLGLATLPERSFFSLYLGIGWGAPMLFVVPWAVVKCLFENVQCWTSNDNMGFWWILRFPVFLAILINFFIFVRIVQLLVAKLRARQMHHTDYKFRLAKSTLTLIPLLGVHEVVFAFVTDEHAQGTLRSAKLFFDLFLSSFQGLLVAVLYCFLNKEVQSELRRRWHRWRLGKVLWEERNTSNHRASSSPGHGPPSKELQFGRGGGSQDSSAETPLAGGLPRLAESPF
Experiment: cell-based or functional assay

Row | cAMP Primary assay EC50 Gluc-R [nM] | cAMP Primary assay EC50 Gluc-R (2nd) [nM] | Binder
6 | 28 | 28 | B1
7 | 28 | 28 | B2
8 | 28 | 28 | B3
9 | 28 | 28 | B4
10 | 28 | 28 | B5

Target: GLP-1 receptor (GLP-1R) (human, UniProt P43220 24-463)
Experiment: cell-based or functional assay

Row | cAMP Mean pM GLP-1R [pM] | cAMP Primary assay EC50 GLP-1R n1 [nM] | cAMP Primary assay EC50 GLP-1R n2 [nM] | Binder
11 | 423 | 0.45 | 0.39 | B1
12 | 0.7 | 0.00068 | 0.00079 | B2
13 | 228 | 0.14 | 0.32 | B3
14 | 24 | 0.021 | 0.027 | B4
15 | 27600 | 28 | 28 | B5
